Assays:
[1] = target: NPAS3;ARNT (mouse;mouse?, UniProt Q9QZQ0;P53762 56-455;82-464, |); experiment: fluorescence anisotropy; FP: 2 nM DNA, 20 mM Tris pH 8.0, 50 mM NaCl, 10 mM DTT, 30 min, temperature not stated (DNA annealed in 10 mM Tris pH 7.5, 1 mM EDTA, 2 mM MgCl2); settings: protein: recombinant;recombinant; tags: vector pSJ2; copies: 1;1; blunt
[2] = target: NPAS1;ARNT (mouse;mouse?, UniProt A2RSH6;P53762 43-423;82-464, |); experiment: as above; settings: protein: recombinant;recombinant; tags: vector pSJ2; copies: 1;1; blunt
NPAS1;ARNT, sequence (chain, as listed by the source |, chain 1 of 2): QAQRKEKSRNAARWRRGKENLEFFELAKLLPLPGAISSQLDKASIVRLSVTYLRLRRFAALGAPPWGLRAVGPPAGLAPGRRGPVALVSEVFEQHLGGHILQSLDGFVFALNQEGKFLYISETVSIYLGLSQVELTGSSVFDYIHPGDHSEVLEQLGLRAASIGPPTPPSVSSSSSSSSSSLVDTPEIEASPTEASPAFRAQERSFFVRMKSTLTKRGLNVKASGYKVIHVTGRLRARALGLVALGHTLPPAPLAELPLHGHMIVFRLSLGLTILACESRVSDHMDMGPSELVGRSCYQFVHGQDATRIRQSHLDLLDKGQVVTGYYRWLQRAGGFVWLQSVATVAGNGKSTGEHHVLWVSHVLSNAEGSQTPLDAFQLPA
NPAS1;ARNT, sequence (P53762 82-464, chain 2 of 2): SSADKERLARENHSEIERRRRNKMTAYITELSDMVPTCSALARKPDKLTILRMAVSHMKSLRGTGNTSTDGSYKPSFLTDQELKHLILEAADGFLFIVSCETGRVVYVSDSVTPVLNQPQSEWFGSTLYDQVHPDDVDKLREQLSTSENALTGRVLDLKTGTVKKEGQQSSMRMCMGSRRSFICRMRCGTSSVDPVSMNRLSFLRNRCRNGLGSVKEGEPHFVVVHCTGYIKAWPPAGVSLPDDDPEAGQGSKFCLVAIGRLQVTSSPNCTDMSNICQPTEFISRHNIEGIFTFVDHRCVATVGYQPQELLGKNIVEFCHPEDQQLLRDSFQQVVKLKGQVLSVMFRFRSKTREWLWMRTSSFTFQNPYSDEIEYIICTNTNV

NPAS3;ARNT, sequence (Q9QZQ0 56-455, chain 1 of 2): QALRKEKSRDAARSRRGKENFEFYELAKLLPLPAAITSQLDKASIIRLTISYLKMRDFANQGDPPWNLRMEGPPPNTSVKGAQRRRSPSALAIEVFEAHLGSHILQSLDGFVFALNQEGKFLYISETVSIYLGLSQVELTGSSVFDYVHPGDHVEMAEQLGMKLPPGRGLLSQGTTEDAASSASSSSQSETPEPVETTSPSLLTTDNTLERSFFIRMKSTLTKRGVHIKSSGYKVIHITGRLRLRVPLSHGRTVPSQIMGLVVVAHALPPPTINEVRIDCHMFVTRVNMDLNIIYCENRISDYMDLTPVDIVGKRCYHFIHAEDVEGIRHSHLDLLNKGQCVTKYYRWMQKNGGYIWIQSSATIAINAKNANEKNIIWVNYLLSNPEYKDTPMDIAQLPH
NPAS3;ARNT, sequence (P53762 82-464, chain 2 of 2): as the sequence (P53762 82-464, chain 2 of 2) above

B1: HRE 21-mer (FP probe) (dsDNA)
DNA 1: GGCTGCGTACGTGCGGGTCGT
DNA 2: ACGACCCGCACGTACGCAGCC
[1]
  Kd: 17.5 ± 1.1 nM
[2]
  Kd: 16.3 ± 1.1 nM

Source: PMC5111884, “NPAS1-ARNT and NPAS3-ARNT crystal structures implicate the bHLH-PAS family as multi-ligand binding transcription factors”
